Results published in the supplement of paper PMC10126150.
± gives the standard deviation of the averaged measurements.

test system: ATP; test: switch fluorescence ratio, 500 uM ATP over buffer (Cy3 cluster intensity, sum of 5 cycles each) (fold (ratio)); higher = stronger signal-on switching upon ATP binding; sequences stand for … in TCGTCGGCAGCGTCAGATGTGTATAAGAGACAGTTTTTTTTTTTTTTTTTTTTTTTTT…TC; details: aptamer strand: ATP DNA aptamer (quencher-CACCTGGGGGAGTATTGCGGAGGAAGG + anchor), 100 nM annealed; ATP concentration: 500 uM
Method in brief: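 Cy3-labelled switching-strand clusters on a modified Illumina MiSeq flow-cell were annealed to 100 nM quencher-labelled ATP aptamer, imaged in selection buffer, then imaged after 15 min with 500 uM ATP at 22 °C. Five buffer/ATP cycles ran, with NaOH stripping and re-annealing between them. The fluorescence ratio is summed target-cycle over summed buffer-cycle Cy3 intensity per cluster, averaged per switch-domain sequence. Clusters outside 100-1000 RFU were excluded.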
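Note: ATP exposure 15 min at 22 °C before imaging.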

| Sequence | switch fluorescence ratio |
| --- | --- |
| TATAAAATTC | 1.24 ± 0.43 |
| ATTTAGGGTA | 0.9856 ± 0.0078 |
| CTTTTATAGT | 0.984 ± 0.02 |
| GGATGTGGGT | 1.011 ± 0.0037 |
| ATGCGAGCGG | 0.985 ± 0.014 |
| GCATTTCATG | 0.987 ± 0.021 |
| TCCAGGTTGG | 1.15 ± 0.048 |
| TATTCGATTC | 1.04 ± 0.017 |
| ACGGGTAATT | 1.02 ± 0.037 |
| TTCAGGGGGG | 1.02 ± 0.033 |
| TTAAAGGGC | 0.973 ± 0.08 |
| TGGGGGTAAC | 1.1 ± 0.18 |
| TAAAGGCGTG | 0.96 ± 0.022 |
| ACGGTTGGTG | 1.01 ± 0.027 |
| TGATTCCTGC | 1.02 ± 0.039 |
| GGATTTACGG | 1.001 ± 0.0028 |
| CATTTATGGG | 1.015 ± 0.0031 |
| GAGGGCCTGA | 1.01 ± 0.012 |
| ATGCGCTCTA | 0.992 ± 0.018 |
| ACGTGGTTAG | 1 ± 0.029 |
| GCGCTCATAG | 1.15 ± 0.018 |
| GGCTTGCAAC | 1.03 ± 0.012 |
| GGGGTTTTGA | 0.97725 ± 0.00091 |
| GGGGGTTGGC | 0.966 ± 0.047 |
| GGGTTAGATG | 0.9893 ± 0.0069 |

| Sequence | switch fluorescence ratio |
| --- | --- |
| TTAAAGTTGT | 1.03 ± 0.07 |
| CAAGCTTAAA | 0.9729 ± 0.009 |
| AAAGTGTAAA | 1.08 ± 0.058 |
| AAATTATTCG | 1.03 ± 0.045 |
| AAGCGGCGTA | 1.01 ± 0.042 |
| TACTGACGAA | 1.27 ± 0.11 |
| CGGCAACGGT | 1.01 ± 0.011 |
| AACGTTGCTT | 1.01 ± 0.013 |
| TGGCGGGTTA | 0.988 ± 0.067 |
| TAAGGTCGAT | 1.01 ± 0.022 |
| TAAGGAGTTT | 0.972 ± 0.016 |
| ACGGGTTGTC | 0.981 ± 0.11 |
| AGTGACGGTA | 1.04 ± 0.042 |
| TTGCTTACAT | 1.02 ± 0.021 |
| AGGAGGGCGA | 0.9582 ± 0.002 |
| GTGACGAGGG | 0.981 ± 0.013 |
| TCGAGACTAG | 1.02 ± 0.029 |
| GGGTTCGTTA | 0.993 ± 0.029 |
| ATTGTATAAG | 0.9828 ± 0.0052 |
| AGCGACGGTT | 0.982 ± 0.016 |
| AATTGAGTAT | 1.01 ± 0.015 |
| ATCGGGATAG | 1.04 ± 0.044 |
| TCGATCATAA | 0.9901 ± 0.0015 |
| TCGCGAGTAA | 1.04 ± 0.076 |
| GGATAAGGGG | 1.02 ± 0.039 |

| Sequence | switch fluorescence ratio |
| --- | --- |
| CGCTTCCGGG | 1.37 ± 0.059 |
| CACGGGATGC | 1.58 ± 0.12 |
| ATTGTCTAGC | 0.999 ± 0.019 |
| GGGGGAATAT | 1.13 ± 0.39 |
| TGTAGGTTCT | 1.06 ± 0.051 |
| ATGAAAGGGA | 1.02 ± 0.042 |
| ATGAGGGGGG | 0.986 ± 0.031 |
| TGGGATTAGT | 0.9868 ± 0.00058 |
| ATTTTTTCTG | 0.9907 ± 0.0059 |
| TTCCCATGGG | 1.02 ± 0.027 |
| GACCGATTTT | 0.989 ± 0.015 |
| ATGATTCGTG | 0.972 ± 0.028 |
| AAATGTTCTG | 0.948 ± 0.021 |
| GAATGTGGGG | 0.982 ± 0.019 |
| TTGGGTTAAC | 0.9737 ± 0.006 |
| AAGGATTATA | 0.985 ± 0.061 |
| TTCTAAAGAT | 0.969 ± 0.034 |
| GTTGGTATGT | 0.994 ± 0.018 |
| CGGTATTCTT | 0.9883 ± 0.0068 |
| TTTGTCCATG | 0.996 ± 0.055 |
| CGGGGTCGTT | 1 ± 0.024 |
| TGCGCCGTGG | 1.02 ± 0.02 |
| GTTTCGAAAA | 0.9855 ± 0.0074 |
| TGCGGAAGTT | 1.01 ± 0.023 |
| GAGTCAGTAT | 1.03 ± 0.039 |

| Sequence | switch fluorescence ratio |
| --- | --- |
| TGGTTTTTT | 0.998 ± 0.03 |
| TTTGGGGACG | 1.01 ± 0.019 |
| TAATGTTTGC | 1.01 ± 0.033 |
| GGCCTCTTGG | 1 ± 0.011 |
| CGGTACCGTT | 1.02 ± 0.049 |
| TGTTTTAAGC | 1.03 ± 0.022 |
| TTTGTGTCAA | 1.01 ± 0.04 |
| TGGTTTAGCG | 0.964 ± 0.03 |
| CAGCTTTGAG | 1.01 ± 0.037 |
| TTTCCTTTGA | 1.06 ± 0.07 |
| CGTCTAAGCG | 1 ± 0.086 |
| GAATGGGGCT | 0.987 ± 0.037 |
| GACTGGGGCA | 1.017 ± 0.0053 |
| AGAAAAATAC | 1.49 ± 0.67 |
| TCTGATTATA | 0.987 ± 0.024 |
| CTCGTTTTTG | 0.972 ± 0.012 |
| TTTTGTTGTT | 0.995 ± 0.035 |
| GACATTTTGC | 1.05 ± 0.028 |
| ACTATCGGGT | 1.04 ± 0.028 |
| CGGTTCCGTA | 0.971 ± 0.047 |
| GGCATATGCT | 1.02 ± 0.025 |
| GAGTACAGCT | 1.01 ± 0.018 |
| TAAAACAGCG | 1.01 ± 0.012 |
| TTCGTCGGGC | 0.9863 ± 0.0071 |
| TTCCTGATGC | 1.04 ± 0.092 |
